Experimental data as given in patent US7799901B2, “Modulators of the function of FAS receptors and other proteins” (Yeda Research and Development Co. Ltd., priority 1995, dated 2010).
“Also recorded” adds a separate entry of the source.

Target: T1, MORT1 (Homo sapiens, UniProt Q13158)
T1 sequence (Q13158 1-208): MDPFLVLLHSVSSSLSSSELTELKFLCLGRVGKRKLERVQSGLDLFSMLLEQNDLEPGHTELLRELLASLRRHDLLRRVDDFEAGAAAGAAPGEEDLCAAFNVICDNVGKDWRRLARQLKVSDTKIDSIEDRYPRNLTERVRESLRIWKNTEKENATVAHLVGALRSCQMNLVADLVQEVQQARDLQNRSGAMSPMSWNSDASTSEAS
Experiment: Co-immunoprecipitation with co-expressed MORT1 from HeLa cell lysates
Type: binding
Design: expressed in transfected cells; host or cells: HeLa cells
Conditions: HeLa cells; FLAG-tagged MACH, HA-tagged MORT1
From the text: It has been shown also to contribute to, though not to suffice in, the self association of MORT-1 (see Example 1). […] To further assess the involvement of the MORT modules in these interactions, deletion mutants of MACHβ1, fused with the FLAG octapeptide (FLAG-MACHβ1), were expressed in HeLa cells and assessed for their binding in vitro to bacterial-produced […] fusion protein (GST-MORT-1). […] FIGS. 9A and 9B show the results (autoradiograms) of the in vitro interaction of MACHβ1 and its deletion mutants with MORT-1. Briefly, 35 [S] metabolically labeled MACHβ1, MACHβ1 fused at its N-terminus to the FLAG octapeptide (FLAG-MACHβ1), C-terminus truncation mutants of FLAG-MACHβ1, and, as a control, luciferase, were produced in transfected HeLa cells. […]
Testing further if MACHα1 can bind to MORT1 also within mammalian cells, MACHα1 or MACHβ1, fused with the FLAG octapeptide was expressed, together with HA epitope-tagged MORT1 molecules. ^35[S] metabolically labeled MACHα1 and MACHβ1 fused at their N-termini to the FLAG octapeptide (FLAG-MACHα1 and β1), and MORT1 fused at its N terminus to the HA epitope (Field et al, 1988) were expressed in HeLa cells. […] The proteins were analyzed by SDS-polyacrylamide gel electrophoresis (12% acrylamide), followed by autoradiography. […]

MACHα1: MACH isoform, cDNA SEQ ID NO: 14, amino acid SEQ ID NO: 7; contains CED3/ICE homology region
binding to co-expressed MORT1 (co-immunoprecipitation): co-immunoprecipitated

B1: MACHβ1: MACH isoform, cDNA SEQ ID NO: 4, amino acid SEQ ID NO: 5; lacks the CED3/ICE homology region (protein)
chain: MDFSRNLYDIGEQLDSEDLASLKFLSLDYIPQRKQEPIKDALMLFQRLQEKRMLEESNLSFLKELLFRINRLDLLITYLNTRKEEMERELQTPGRAQISAYRVMLYQISEEVSRSELRSFKFLLQEEISKCKLDDDMNLLDIFIEMEKRVILGEGKLDILKRVCAQINKSLLKIINDYEEFSKERSSSLEGSPDEFSNDFGQSLPNEKQTSGILSDHQQSQFCKSTGESAQTSQH
binding to co-expressed MORT1 (co-immunoprecipitation): bound; also recorded: co-immunoprecipitated
